In this test the target is mGFP-UvrD (genomically integrated) (E. coli) (UniProt P03018). Briefly: single-molecule fluorescence microscopy.

The text below walks through data of article doi:10.1101/2021.02.22.432310.

Consider “mGFP-UvrD (genomically integrated) (from UniProt P03018 1-720) (enzyme)”, for which the stoichiometry N (usually a count of units in the complex or per binding partner) amounted to 4.
